# Results: patent US12296066B2, “Methods of wound healing with Serp-1 polypeptides” (ARIZONA BOARD OF REGENTS ON BEHALF OF ARIZONA STATE …, priority 2018, dated 2025)
# B1: Serp-1: Recombinant Serp-1 (m008.1L), secreted Myxomavirus glycoprotein serpin, expressed in CHO cells; SEQ ID NO: 1 (protein, listed as Homo sapiens)
# chain: MKYLVLVLCLTSCACRDIGLWTFRYVYNESDNVVFSPYGLTSALSVLRIAAGGNTKREIDVPESVVEDSDAFLALRELFVDASVPLRPEFTAEFSSRFNTSVQRVTFNSENVKDVINSYVKDKTGGDVPRVLDASLDRDTKMLLLSSVRMKTSWRHVFDPSFTTDQPFYSGNVTYKVRMMNKIDTLKTETFTLRNVGYSVTELPYKRRQTAMLLVVPDDLGEIVRALDLSLVRFWIRNMRKDVCQVVMPKFSVESVLDLRDALQRLGVRDAFDPSRADFGQASPSNDLYVTKVLQTSKIEADERGTTASSDTAITLIPRNALTAIVANKPFMFLIYHKPTTTVLFMGTIT
# Legend:
# CD31-positive vessels = assay: CD31 immunohistochemistry of peri-wound vascularization; assay type: in vivo, C57BL6/J mice
# Excerpt: (§1) Skin tissues were collected at day 1, 4, 7 and 15 and fixed in 10% neutral-buffered formalin for at least two days before tissue processing with a Leica TP1050 and embedded in paraffin with a Leica EG1160 embedding station. Blocks were serially sectioned using a Leica RM2165 microtome (4 μm sections) and stained with hematoxylin and eosin (H&E) by standard procedure. […]
# (§2) Slides were imaged on an Olympus BX51 upright microscope equipped with an Olympus DP74 high-resolution camera operated by cellSens Dimensions v1.16. Images were collected as objective-calibrated TIFFs and subsequently analyzed and processed in Image)/FIJI (Schindelin et al., Nat. […] Positively stained cells were counted per high power field for each treatment group.
# The blood vessels were analyzed by immunohistochemistry with antibodies against the endothelial marker CD31 (also called PECAM-1), a marker for endothelial cells commonly used to indicate wound bed blood vessels (Vanchinathan et al., Am. J. Clin. Pathol. (2015). doi:10.1309/AJCPRHM8CZH5EMFD). The number of positive staining vessels in different optical fields was quantified from four pairs of saline- and Serp-1-treated wounds. […]
# dermal collagen fibers = assay: quantitative collagen texture analysis, Masson's trichrome; assay type: in vivo, C57BL6/J mice; details: 15 days wound healing
# Protocol: as §1
# Quantitative collagen texture analysis was performed in Image)/FIJI (Schindelin, Nat. […] Local thickness of collagen bundles was determined with the plugin “LocalThickness 4.0.2” using the methods described by Saito and Toriwaki (Saito, Pattern Recognit. 27 (1994) 1551-1565. doi:10.1016/0031-3203(94)90133-3), and by Hildebrand and Rüegsegger (Hildebrand, J. Microsc. 185 (1997) 67-75. doi:10.1046/j.1365-2818.1997.1340694.x.). Regularity of collagen bundles was determined with the plugin “Directionality” as previously reported (Sensini, Biofabrication. 9 (2017) 015025. doi:10.1088/1758-5090/aa6204).
# During wound healing, collagen accumulation and organization are correlated with scar formation. […] Local scar thickness (FIG. 7C) and directionality (FIG. 7D) of collagen in scars were analyzed using ImageJ after Masson's trichrome staining under microscopic examination (20× magnification).
# [1] = test system: Arg-1 positive macrophages; assay: Arginase-1 immunohistochemistry, M2 macrophage differentiation in wounds; assay type: in vivo, C57BL6/J mice
# Excerpt: as §1, §2
# Additionally the differentiation of M2 macrophages was =analyzed (FIG. 6C), during wound-healing (Kotwal and Chien, Macrophage differentiation in normal and accelerated wound healing, in: Results Probl. Cell Differ., 2017. doi:10.1007/978-3-319-54090-0_14), by IHC with antibodies against Arginase-1 (EC3.5.3.1). […]
# Ly6G positive cells = assay: Ly6G immunohistochemistry, neutrophil infiltration in wounds; assay type: in vivo, C57BL6/J mice; details: day 4; p=0.110
# Excerpt: (§3) Skin tissues were collected at day 1, 4, 7 and 15 and fixed in 10% neutral-buffered formalin for at least two days before tissue processing with a Leica TP1050 and embedded in paraffin with a Leica EG1160 embedding station. Blocks were serially sectioned using a Leica RM2165 microtome (4 μm sections) and stained with hematoxylin and eosin (H&E) by standard procedure. Sections were additionally stained by immunohistochemistry (IHC) for CD31 (Abcam, #ab28364, 1:100), Ly6G (Invitrogen, #14-5931-82, 1:100), and arginase-1 (Cell Signaling, #93668, 1:200), and with Masson's trichrome (Masson, J Tech Methods. 12 (1929) 75-90) and Herovici's polychrome (Herovici, Stain Technol. 38 (1963) 204-6, Levame and Meyer, Pathol. Biol. (Paris). 35 (1987) 1183-8) as special stains for collagen.
# Slides were imaged on an Olympus BX51 upright microscope equipped with an Olympus DP74 high-resolution camera operated by cellSens Dimensions v1.16. Images were collected as objective-calibrated TIFFs and subsequently analyzed and processed in Image)/FIJI (Schindelin et al., Nat. Methods. 9 (2012) 676-682. doi:10.1038/nmeth.2019). Positively stained cells were counted per high power field for each treatment group.
# Therefor neutrophil infiltration was analyzed at sites of wound healing with and without treatment with Serp-1 at day 4 by immunohistochemistry with antibodies against Ly6G (FIG. 6A).
# [2] = test system: collagen bundles (Type 3 / Type 1); assay: Herovici's staining of collagen maturation in healed wounds; assay type: in vivo, C57BL6/J mice
# Excerpt: as §3
# Collagens play a crucial role in angiogenesis during tissue regeneration. It is well known that collagen I a central factor allowing for endothelial cells to initiate precapillary cord formation. In contrast increased deposition of collagen III reduces the density of blood vessels at sites of wound healing (Davis, Circ. Res. (2005). doi:10.1161/01.RES.0000191547.64391.e3, O'Rourke, Adv. Wound Care. (2018). doi:10.1089/wound.2018.0827). […]
# [3] = test system: full thickness dorsal skin wound; assay: full-thickness splinted excisional wound healing model, planimetric wound closure; assay type: in vivo, C57BL6/J mice
# Excerpt: The mouse dermal wound healing splinted model was used for these studies where the contraction is held by a donut-shaped splint remains the most widely accepted and extensively used model to study skin wound healing in mice (Galiano et al., Wound Repair Regen. 12 (2004) 485-492. doi:10.1111/j.1067-1927.2004.12404.x, Wang et al., Nat. Protoc. 8 (2013) 302-309. doi:10.1038/nprot.2013.002, Dunn et al., J. Vis. Exp. (2013) 1-6. doi:10.3791/50265).
# Mice (N=29 mice) were anesthetized by intraperitoneal injection of a cocktail of 120 mg/kg ketamine and 6 mg/kg xylazine, 0.1 ml/25 g bodyweight and prepped by shaving an area of approximately 1×1 inch spanning from between the ears to the peak of the spine, centered between each shoulder. The shaved area was sterilized by two washes with 2% chlorhexidine gluconate solution (Dyna-Hex 2®, Xttrium Laboratories) and 70% ethanol using cotton swabs.
# A 3.5 mm punch biopsy was performed centered in the shaved area to create the full-thickness wound excision. Treatment or control as saline solution or chitosan-collagen hydrogel preparation were applied to the wound using a hand-held micropipette. In brief, 13 mice were given saline inoculation at the time of injury, 6 mice were given Serp-1 at the time of injury at doses or 1 or 2 μg. Six mice were given 1 μg of Serp-1 and followed by second bolus at 3 days post wounding. A second group of 6 mice were given Serp-1/chitosan treatment applied at the time of injury and 6 mice were given chitosan gel alone.
# A donut-shaped silicon splint (O.D. 15 mm; I.D. 5.0 mm; Culture-Well™ Grace Biolabs) with Tegaderm™ (3M Company) affixed to one side was coated with cyanoacrylate glue (Krazy Glue®) on the opposite side and carefully placed on the back of the mouse with the biopsy site centered within the inner hole. Six interrupted sutures (4-0 black Ethilon monofilament with a FS-2 reverse cutting needle; Ethicon, Inc.) were placed around the outer edge of the splint to complete the procedure. Mice were allowed to recover and returned to single-housed cages for the remainder of the trial.
# On the day of the procedure (Day 0) and on every subsequent day of follow-up, for a total of 15 days, mice were collected and wounds assessed while awake. Digital images were collected using a Google Pixel model 1 or 3XL smartphone camera. Planimetric measurements of wound healing progress was performed in Image)/FIJI and calibrated to known pixel-to-size measurements (Schindelin et al., Nat. Methods. 9 (2012) 676-682. doi:10.1038/nmeth.2019).
# Serp-1 has proven to be an effective modulator of coagulation pathways and immune responses in numerous animal models of vascular injury and transplant. […] In this study, the efficacy of topical Serp-1 application was tested in a full-thickness excisional model of wound healing (FIG. 2A). A 3.5 mm biopsy punch was used to create a full thickness dorsal skin wound in C57BL6/J wildtype mice. Wounds were produced through the entirety of the dermis without puncturing the panniculus carnosus. In an initial analysis, Serp-1 was applied in saline solution and compared to control saline solution alone, given directly to the wound bed. A silicone splint with a gas-permeable Tegaderm layer was sutured over the bed. The silicone splint prevented wound contraction, allowing direct visualization and photography of wound re-epithelialization during the course of a 15-day healing period (FIG. 2B).
# [4] = intravenous bolus injections, patients with unstable angina; cited from earlier work
molecule,measurement,setting,value
B1,number of vessels each image (CD31-positive),"CD31-positive vessels; day 7, peri-wound area, saline control 10.0±2.5",36.3±4.9
same,appearance of CD31-positive vessels,"CD31-positive vessels; day 7, versus saline alone","appreciably more “mature” CD31-positive vessels, with increased length and thickness"
same,collagen bundle thickness,dermal collagen fibers,increased bundle thickness
same,collagen directionality,dermal collagen fibers,more organized directionality
same,density of Arg-1 positive macrophages,"[1]; day 4, compared to control wounds",significantly increased density
same,density of Arg-1 positive (M2) macrophages,"[1]; day 7, compared to untreated wounds",significant higher
same,Ly6G positive cells in healing tissues,Ly6G positive cells,non significant trend toward an increase
same,ratio of collagen types in treated wound,"[2]; Herovici's stain, FIG. 8",increasing the ratio of collagen III to collagen I
same,collagen maturation by Herovici's stain,"[2]; day 15, versus saline-treated wounds",greater degree of maturation
same,wound closure earlier compared to saline group,"[3]; 1.0 μg Serp-1, in the first week",four
same,wound closure,"[3]; 1.0 μg/wound at day 0 and day 3, day 5",40%
same,days less to achieve same degree of closure as control group at day 7 (or 2.0 μg at day 5),"[3]; 1.0 μg/wound/mouse, single dose, mean",3 days
same,wound closure,"[3]; 2.0 μg Serp-1, day 5",greater than 20%
same,wound closure,"[3]; 2.0 μg Serp-1, day 7",47%
same,wound healing accelerated by,"[3]; 2 μg/mouse, single topical dose day 0, p<0.0001",approximately 3 days
same,day of healing equivalent to saline alone on Day 7,[3]; Serp-1 [1+1]: 1 μg/mouse on Days 0 and 3 (FIG. 2C),3 days
same,faster closure rate,"[3]; mouse model, conclusion",40%
same,scarring,"[3]; mouse model, conclusion",reduction in scarring
same,completeness of closure,"[3]; repeated treatment group (1.0 μg day 0 + day 3), 15 days of observation",more completely closure than other groups
same,wound closure,"[3]; single dose treatment groups, day 5",30%
same,"time to wound closure accelerated by, compared to saline","[3]; topical, doses of between 1 microgram and 2 micrograms, punch wounds on mouse back",2 to 5 days
same,safety,[4],proved safe
